From paper PMC5941273, “DNA-binding miniproteins based on zinc fingers. Assessment of the interaction using nanopores† †Electronic supplementary information (ESI) available. See DOI: 10.1039/c7sc05441f”

Columns and labels:
Hk-gaga = Hk-gaga (UniProt Q08605); assay: fluorescence anisotropy; settings: Zn2+, EMSA: 18 mM Tris-HCl pH 7.5, 90 mM KCl, 1.8 mM MgCl2, 0.2 mM TCEP, 9% glycerol, 0.11 mg/mL BSA, 2.2% NP-40, 0.02 mM ZnCl2, 20 C, 75 nM DNA, FA: 20 mM Tris-HCl …
gaga-Hk = gaga-Hk (UniProt Q08605); assay: fluorescence anisotropy; settings: Zn2+, EMSA: 18 mM Tris-HCl pH 7.5, 90 mM KCl, 1.8 mM MgCl2, 0.2 mM TCEP, 9% glycerol, 0.11 mg/mL BSA, 2.2% NP-40, 0.02 mM ZnCl2, 20 C, 75 nM DNA, FA: 20 mM Tris-HCl …
Chain of gaga-Hk (Q08605 other isoform, or with tags, fused parts or gaps): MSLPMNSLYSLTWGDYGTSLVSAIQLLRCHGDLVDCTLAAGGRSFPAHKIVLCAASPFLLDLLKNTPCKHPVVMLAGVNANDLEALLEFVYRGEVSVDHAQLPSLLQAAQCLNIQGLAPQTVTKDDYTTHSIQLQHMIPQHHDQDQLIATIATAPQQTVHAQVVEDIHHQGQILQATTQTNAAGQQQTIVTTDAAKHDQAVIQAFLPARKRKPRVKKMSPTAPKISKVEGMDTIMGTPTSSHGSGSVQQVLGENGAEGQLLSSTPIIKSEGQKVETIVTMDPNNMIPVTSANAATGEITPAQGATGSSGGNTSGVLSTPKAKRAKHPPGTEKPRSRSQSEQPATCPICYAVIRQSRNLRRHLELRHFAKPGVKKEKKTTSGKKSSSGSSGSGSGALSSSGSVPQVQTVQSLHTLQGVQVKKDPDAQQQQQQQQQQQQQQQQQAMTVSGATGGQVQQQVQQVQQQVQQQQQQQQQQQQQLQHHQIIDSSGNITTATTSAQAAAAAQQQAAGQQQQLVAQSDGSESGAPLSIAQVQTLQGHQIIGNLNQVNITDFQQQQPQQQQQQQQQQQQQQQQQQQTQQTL

gaga-Hk-gaga = gaga-Hk-gaga (UniProt Q08605); assay: fluorescence anisotropy; settings: no calf thymus DNA; Zn2+; EMSA: 18 mM Tris-HCl pH 7.5, 90 mM KCl, 1.8 mM MgCl2, 0.2 mM TCEP, 9% glycerol, 0.11 mg/mL BSA, 2.2% NP-40, 0.02 mM ZnCl2, 20 C, 75 nM DNA; FA: 20 mM Tris-HCl …
Chain of gaga-Hk-gaga (Q08605 other isoform, or with tags, fused parts or gaps): as above

[1] = molecular target: T1, gaga (GAGA Cys2-His2 zinc finger peptide) (UniProt Q08605 337-367); assay: EMSA; Zn2+; 1000 nM; EMSA: 18 mM Tris-HCl pH 7.5, 90 mM KCl, 1.8 mM MgCl2, 0.2 mM TCEP, 9% glycerol, 0.11 mg/mL BSA, 2.2% NP-40, 0.02 mM ZnCl2, 20 C, 75 nM DNA; FA: 20 mM Tris-HCl pH 7.5, 100 mM NaCl, 0.02 mM ZnCl2, 20 C, 25 nM DNA; nanopore: 100 mM NaCl, 0.02 mM ZnCl2, 20 mM Tris-HCl pH 7.5, 22 C
T1 chain: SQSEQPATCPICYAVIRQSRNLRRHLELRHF

Chain of Hk-gaga (Q08605 other isoform, or with tags, fused parts or gaps): as the sequence (Q08605 other isoform, or with tags, fused parts or gaps) above

CGCGTCATAATTGAGAGCGC (double strand) [TMR-AT·GAG]
Kd (Hk-gaga; 50 uM bp calf thymus DNA): 92 nM | Kd (Hk-gaga; no calf thymus DNA): 44 nM | Kd (gaga-Hk; 50 uM bp calf thymus DNA): 58 nM | Kd (gaga-Hk; no calf thymus DNA): 41 nM

CGCGTCATCAGCGAGAGCGC (double strand) [TMR-cg·GAG]
Kd (gaga-Hk; no calf thymus DNA): 100 nM

GAGCTCTCAATTGAGAGCGCG (double strand) [TMR-CTC·AT·GAG]
Kd (gaga-Hk-gaga): 35 nM

B1: AT·GAG (= cat·AT·GAG) (dsDNA)
DNA 1: CGCGTCATAATTGAGAGCGC
DNA 2: GCGCTCTCAATTATGACGCG
binding result [1]: no binding

B2: cg·GAG (dsDNA)
DNA 1: CGCGTCATCAGCGAGAGCGC
DNA 2: GCGCTCTCGCTGATGACGCG
binding result [1]: no binding
